From paper PMC8253215

Assays:
[1] = target: rat luteinizing hormone/chorionic gonadotropin receptor (rLH/CGR) (rat) (UniProt P16235)
[2] = target: rat follicle-stimulating hormone receptor (rFSHR) (rat) (UniProt P20395)
Sequence of UniProt P20395 (P20395 18-692): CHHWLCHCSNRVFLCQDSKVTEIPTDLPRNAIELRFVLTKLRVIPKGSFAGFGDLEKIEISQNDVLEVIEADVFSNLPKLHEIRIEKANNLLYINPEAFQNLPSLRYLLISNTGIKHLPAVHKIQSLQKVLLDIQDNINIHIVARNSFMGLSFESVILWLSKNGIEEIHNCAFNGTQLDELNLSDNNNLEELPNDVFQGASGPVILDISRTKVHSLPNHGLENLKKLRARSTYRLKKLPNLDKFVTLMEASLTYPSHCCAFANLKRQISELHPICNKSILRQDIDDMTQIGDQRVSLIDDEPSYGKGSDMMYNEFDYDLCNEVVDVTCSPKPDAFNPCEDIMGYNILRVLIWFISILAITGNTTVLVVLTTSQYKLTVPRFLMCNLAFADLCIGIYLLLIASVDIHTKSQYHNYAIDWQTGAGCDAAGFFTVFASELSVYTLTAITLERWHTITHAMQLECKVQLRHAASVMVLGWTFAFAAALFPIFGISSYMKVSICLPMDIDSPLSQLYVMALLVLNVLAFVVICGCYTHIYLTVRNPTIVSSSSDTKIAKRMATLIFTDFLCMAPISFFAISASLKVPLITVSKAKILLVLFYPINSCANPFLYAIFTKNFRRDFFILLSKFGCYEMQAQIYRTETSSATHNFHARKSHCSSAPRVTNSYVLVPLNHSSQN

Sequence of UniProt P16235 (P16235 27-700): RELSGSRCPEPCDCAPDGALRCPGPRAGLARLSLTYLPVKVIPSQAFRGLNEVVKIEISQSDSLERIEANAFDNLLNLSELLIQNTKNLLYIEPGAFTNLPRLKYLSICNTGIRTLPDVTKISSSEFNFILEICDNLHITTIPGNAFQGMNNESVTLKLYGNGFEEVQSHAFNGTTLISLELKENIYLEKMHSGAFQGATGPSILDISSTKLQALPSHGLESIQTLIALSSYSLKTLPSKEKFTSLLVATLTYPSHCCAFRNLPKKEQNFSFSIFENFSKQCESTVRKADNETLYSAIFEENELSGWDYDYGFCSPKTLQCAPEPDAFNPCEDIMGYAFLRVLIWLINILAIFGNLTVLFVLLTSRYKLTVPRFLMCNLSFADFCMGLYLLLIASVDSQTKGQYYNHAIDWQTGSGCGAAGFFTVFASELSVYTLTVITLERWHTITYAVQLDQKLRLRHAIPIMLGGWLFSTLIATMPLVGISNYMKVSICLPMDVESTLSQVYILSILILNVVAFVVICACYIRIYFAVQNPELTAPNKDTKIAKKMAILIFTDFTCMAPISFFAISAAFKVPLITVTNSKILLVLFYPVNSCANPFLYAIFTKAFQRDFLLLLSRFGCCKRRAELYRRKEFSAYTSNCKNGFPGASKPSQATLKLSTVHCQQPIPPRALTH

EC50 of cAMP response (HTRF) in CHO-K1 cells expressing rLH/CGR [1] [ng/mL] | EC50 of cAMP response (HTRF) in CHO-K1 cells expressing rFSHR [2] [ng/mL] | Substance
0.016 | 1.75 | rec-eCGβV102G;F103P/α (from UniProt P08751 21-169; P01220 25-120) (ligand)
0.018 | 0.99 | rec-eCGβF103P/α (from UniProt P08751 21-169; P01220 25-120) (ligand)
0.038 | 5.45 | rec-eCGβV102G;R104K/α (from UniProt P08751 21-169; P01220 25-120) (ligand)
0.015 | 0.79 | rec-eCGβV102G/α (from UniProt P08751 21-169; P01220 25-120) (ligand)
0.037 | 6.4 | rec-eCGβF103P;R104K/α (from UniProt P08751 21-169; P01220 25-120) (ligand)
0.013 | 2.86 | rec-eCGβV102G;F103P;R104K/α (from UniProt P08751 21-169; P01220 25-120) (ligand)
0.033 | 0.98 | rec-eCGβR104K/α (from UniProt P08751 21-169; P01220 25-120) (ligand)
 | 0.16 | single-chain recombinant equine chorionic gonadotropin β/α, wild type (rec-eCGβ/α-wt) (from UniProt P08751 21-169; P01220 25-120) (ligand)
